According to patent US20080152587A1 (Amgen, published 2008):

Assays:
[1] = target: T1, mouse uPAR on the surface of NCTC L929 cells (mouse, UniProt P35456 24-298); assay: FACS, NCTC L929 mouse cells
T1 construct: whole, on cells; also called cell surface mouse uPAR
T1 sequence (looked up): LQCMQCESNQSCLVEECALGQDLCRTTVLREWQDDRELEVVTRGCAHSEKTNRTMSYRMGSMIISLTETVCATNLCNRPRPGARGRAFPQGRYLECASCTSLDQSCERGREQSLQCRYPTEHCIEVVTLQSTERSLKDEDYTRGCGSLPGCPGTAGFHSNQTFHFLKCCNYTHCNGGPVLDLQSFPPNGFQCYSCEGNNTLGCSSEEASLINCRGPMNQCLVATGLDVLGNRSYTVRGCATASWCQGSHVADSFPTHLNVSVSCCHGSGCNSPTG

[2] = target: T2, human urokinase-type plasminogen activator receptor (uPAR, CD87), cell-bound (human, UniProt Q03405 23-305); assay: FACS, U937 cells, mAb 5 µg/ml on ice, alexa647 goat anti-human F(ab), not stripped
T2 construct: whole, on cells; On B300.19 or L929 transfectants (full length cDNA), or native on U937 and PC-3 cells

[3] = target: T3, murine uPAR (form not stated) (mouse, UniProt P35456 24-297, limits assumed); assay: summary column Murine X-reactivity
T3 construct: also called mouse uPAR
T3 sequence (looked up): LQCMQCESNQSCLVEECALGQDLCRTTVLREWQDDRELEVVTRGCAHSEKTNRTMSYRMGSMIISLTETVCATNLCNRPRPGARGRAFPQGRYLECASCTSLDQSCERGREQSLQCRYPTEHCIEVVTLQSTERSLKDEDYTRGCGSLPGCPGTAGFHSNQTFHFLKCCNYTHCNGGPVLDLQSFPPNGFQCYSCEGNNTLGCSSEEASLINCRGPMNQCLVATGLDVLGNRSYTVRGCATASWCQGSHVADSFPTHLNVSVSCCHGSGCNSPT

[4] = target: T2, human urokinase-type plasminogen …; assay: cell-based or functional assay
[5] = target: T2, human urokinase-type plasminogen …; assay: FACS, B300.19 cells expressing human uPAR, anti-human gamma Cy5
[6] = target: T4, lane 1: murine DI/DIII-human DII uPAR chimera (His-tagged); assay: Western blot of HEK293T culture supernatants with His-tagged uPAR proteins, probed with the antibody
T4 construct: The sheet prints only the lane number; also called Murine D1/Human D2/Murine D3; murine D1/human D2/MuD3
T4 uPAR ECD chimera: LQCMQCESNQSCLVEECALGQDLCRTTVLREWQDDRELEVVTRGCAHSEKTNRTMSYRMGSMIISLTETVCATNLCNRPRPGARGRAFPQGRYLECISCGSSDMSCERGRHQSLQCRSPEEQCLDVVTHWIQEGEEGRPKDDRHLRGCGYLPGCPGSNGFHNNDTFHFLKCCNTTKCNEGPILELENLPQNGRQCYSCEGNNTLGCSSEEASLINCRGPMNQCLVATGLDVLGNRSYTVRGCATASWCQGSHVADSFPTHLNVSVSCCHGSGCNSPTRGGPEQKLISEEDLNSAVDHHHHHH

[7] = target: T5, lane 3: murine DI-human DII/DIII uPAR chimera (His-tagged); assay: as above
T5 construct: The sheet prints only the lane number; also called Murine D1/Human D2D3; murine D1/humanD2D3
T5 uPAR ECD chimera: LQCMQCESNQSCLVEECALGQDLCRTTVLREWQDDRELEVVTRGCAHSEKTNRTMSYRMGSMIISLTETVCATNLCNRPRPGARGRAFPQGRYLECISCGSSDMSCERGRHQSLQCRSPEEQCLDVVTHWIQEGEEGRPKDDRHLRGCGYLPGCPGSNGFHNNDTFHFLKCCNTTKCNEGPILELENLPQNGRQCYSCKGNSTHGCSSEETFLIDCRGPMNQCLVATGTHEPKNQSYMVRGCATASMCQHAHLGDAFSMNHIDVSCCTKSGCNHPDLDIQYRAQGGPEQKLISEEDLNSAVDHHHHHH

[8] = target: T6, lane 4: human DI/DII-murine DIII uPAR chimera (His-tagged); assay: as above
T6 construct: The sheet prints only the lane number; also called Human D1D2/Murine D3; human D1D2/murineD3uPAR
T6 uPAR ECD chimera: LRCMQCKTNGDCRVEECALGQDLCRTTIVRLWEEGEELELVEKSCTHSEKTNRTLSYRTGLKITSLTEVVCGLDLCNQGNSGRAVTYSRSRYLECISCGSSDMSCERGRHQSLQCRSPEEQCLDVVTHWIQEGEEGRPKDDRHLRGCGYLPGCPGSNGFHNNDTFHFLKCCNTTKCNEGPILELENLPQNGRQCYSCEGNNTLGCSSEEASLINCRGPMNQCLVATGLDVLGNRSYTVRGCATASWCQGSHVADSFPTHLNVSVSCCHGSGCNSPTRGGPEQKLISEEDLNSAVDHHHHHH

[9] = target: T7, lane 2: murine DI/DII-human DIII uPAR chimera (His-tagged); assay: as above
T7 construct: The sheet prints only the lane number; also called Murine D1D2/Human D3
T7 uPAR ECD chimera: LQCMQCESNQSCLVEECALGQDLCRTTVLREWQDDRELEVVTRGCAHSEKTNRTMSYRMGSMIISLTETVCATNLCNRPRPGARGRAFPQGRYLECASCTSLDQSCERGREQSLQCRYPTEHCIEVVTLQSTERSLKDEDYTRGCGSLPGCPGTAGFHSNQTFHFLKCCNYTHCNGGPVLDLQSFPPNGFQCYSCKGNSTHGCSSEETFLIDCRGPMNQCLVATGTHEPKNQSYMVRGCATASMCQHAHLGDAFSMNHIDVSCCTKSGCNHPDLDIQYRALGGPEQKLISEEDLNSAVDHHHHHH

[10] = target: T8, soluble recombinant human uPAR/His6 (R&D Systems, Cat. # 807-UK-100) (human, UniProt Q03405 23-303); assay: limited antigen ELISA, uPAR coat 20 ng/mL, sample 1:25
T8 construct: range 1-303; Bought protein; also called soluble uPAR; hu-uPAR

[11] = target: T2, human urokinase-type plasminogen …; assay: cell-based or functional assay; remark: listed apart in the source

T8 sequence (Q03405 other isoform, or with tags, fused parts or gaps limits assumed, form in doubt): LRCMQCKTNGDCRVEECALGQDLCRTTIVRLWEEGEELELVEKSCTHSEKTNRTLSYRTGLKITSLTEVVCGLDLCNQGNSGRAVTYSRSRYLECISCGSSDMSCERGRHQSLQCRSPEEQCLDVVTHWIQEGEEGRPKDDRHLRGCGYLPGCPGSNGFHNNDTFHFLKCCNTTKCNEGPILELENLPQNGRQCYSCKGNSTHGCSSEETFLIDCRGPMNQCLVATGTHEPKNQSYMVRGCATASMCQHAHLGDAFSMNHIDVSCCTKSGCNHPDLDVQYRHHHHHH

B1: fully human monoclonal antibody 4.18.1 (ATCC Accession Number PTA-7476) (antibody, V domains shown)
VH: EVQLVESGGGLIQPGGSLRLSCAASGFTVRNNYMNWVRQAPGKGLEWVSVIYTGGSTYYADSVKGRFTISRDNSRNTLYLQMNSLRAEDTAVYYCAREGAVAGFDYWGQGTLVTVSL
VL: EIVMTQFPATLSMSPGERATLSCRASQSVSSSLAWYQQTPGQAPRLLIYGASTRSTGFPARFSGIGSGTEFTLTISSLQSEDFAVYYCQQYGNWPLTFGQGTRLEIK
In the case of B1, the binding result [1] is reported as “no binding (tested: 6.25 µg/ml)”, the “geo mean cold - TCEP” value [2] is reported as 41.2 and the binding result [3] is reported as “no binding”. The “inhibition of adhesion of U937 cells to vitronectin at 2 µg/ml” value (“inhibition of adhesion of U937 cells” below) [4] was roughly 90%, the “inhibition of plasminogen activation on U937 cells” value (“inhibition … on U937 cells” below) [4] was greater than 90% and the “gCy5 Geo Mean Pos Cells” value [5] was 251. B1: no binding [6]; binds [7]; no binding [8]. For the same binder, the binding result [9] was “no binding”, the “LA at 20 ng/ml” value [10] was 0.27 and the “Plasminogen activation inhibition (IC50, ug/ml)” value [11] was 0.067 µg/mL.

B2: fully human monoclonal antibody 2.19.2 (ATCC Accession Number PTA-7474) (antibody, V domains shown)
VH: QVQLVESGGGVVQPGRSLRLSCAASGFTFSSYGMHWVRQAPGKGLEWVAVIWYDGSNKYYADSVKGRFTISRDNSKNTLYLQMNSLRAEDTAVYYCARDQHIVVVTAILDYWGQGTLVTVSS
VL: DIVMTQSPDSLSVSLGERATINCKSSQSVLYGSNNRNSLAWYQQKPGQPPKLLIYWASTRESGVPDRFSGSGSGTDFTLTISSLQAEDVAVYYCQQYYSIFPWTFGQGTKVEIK
B2 was tested, and the binding result [1] was “no binding (tested: 6.25 µg/ml)”, the “geo mean cold - TCEP” value [2] was 42.7 and the binding result [3] was “no binding”. The “inhibition of adhesion of U937 cells” value [4] was 90%, the “inhibition … on U937 cells” value [4] was greater than 90% and the “gCy5 Geo Mean Pos Cells” value [5] was 445. B2: no binding [6]; no binding [7]; binds [8]. For the same binder, the binding result [9] was “no binding”, the “LA at 20 ng/ml” value [10] was 0.65 and the “Plasminogen activation inhibition (IC50, ug/ml)” value [11] was 0.053 µg/mL.

B3: fully human monoclonal antibody 2.6.1 (ATCC Accession Number PTA-7475) (antibody, V domains shown)
VH: EVQLVESGGGLIQPGGSLRLSCAASGFTVITNYMNWVRQAPGKGLEWVSIIYTGGSTSYADSVKGRFTVSRDNSKNTLYLHMNSLRVEDTAVYYCAREIAVAGYYGMDVWGQGTTVTVS
VL: DIQMTQSPSSLSASVGDRVTITCRASQGIRNDLGWYQQKPGKAPKRLIYAASSLQSGVPSRFSGSGSGTEFTLTISSLQPEDFATYYCLQHNSYPLTFGGGTRVEIK
notes: also called mAb 2.6.1
B3 was tested, and the binding result [1] was “no binding (tested: 6.25 µg/ml)”, the “geo mean cold - TCEP” value [2] was 44.3 and the binding result [3] was “no binding”. The “inhibition of adhesion of U937 cells” value [4] was 90%, the “inhibition … on U937 cells” value [4] was greater than 90% and the “gCy5 Geo Mean Pos Cells” value [5] was 455. B3: no binding [6]; binds [7]; no binding [8]. For the same binder, the binding result [9] was “no binding”, the “LA at 20 ng/ml” value [10] was 0.63 and the “Plasminogen activation inhibition (IC50, ug/ml)” value [11] was 0.073 µg/mL.
